Source: the supplement of paper PMC11316812
± gives the standard deviation of the averaged measurements.

How the values were obtained:
MCF7 = assay: percentage of EdU-negative (G0-arrested) nuclei per well, 72 h; higher = more G0 arrest; settings: reference: sequence is the full UniProt precursor, the tested protein was the secreted form or ectodomain
hTERT-HMEC = assay: as above; settings: reference: sequence is the full UniProt precursor, the tested protein was the secreted form or ectodomain
[1] = protein concentration 0.0107825 µM
[2] = protein concentration 0.107825 µM
[3] = protein concentration 0.0225 µM
[4] = protein concentration 0.0075 µM
[5] = protein concentration 0.01825 µM
[6] = protein concentration 0.1825 µM
[7] = protein concentration 0.03125 µM
[8] = protein concentration 0.3125 µM
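Also: secreted proteins added to cultured cells, EdU pulse at the end, nuclei found by Hoechst imaging, EdU status from nuclear versus surrounding ring intensity ratio, PBS as neutral control.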

Row | Sequence | percentage of EdU-negative (MCF7; [3]) [%] | percentage of EdU-negative (MCF7; protein concentration 0.225 µM) [%] | percentage of EdU-negative (hTERT-HMEC; [3]) [%] | percentage of EdU-negative (hTERT-HMEC; protein concentration 0.225 µM) [%] | other results
1 | MTILFLTMVISYFGCMKAAPMKEANIRGQGGLAYPGVRTHGTLESVNGPKAGSRGLTSLADTFEHVIEELLDEDQKVRPNEENNKDADLYTSRVMLSSQVPLEPPLLFLLEEYKNYLDAANMSMRVRRHSDPARRGELSVCDSISEWVTAADKKTAVDMSGGTVTVLEKVPVSKGQLKQYFYETKCNPMGYTKEGCRGIDKRHWNSQCRTTQSYVRALTMDSKKRIGWRFIRIDTSCVCTLTIKRGR | – | – | – | – | percentage of EdU-negative (MCF7; [1]): 26.6 ± 0.45%; percentage of EdU-negative (MCF7; [2]): 28.7 ± 1.2%; percentage of EdU-negative (hTERT-HMEC; [1]): 5.167 ± 0.044%; percentage of EdU-negative (hTERT-HMEC; [2]): 7.06 ± 0.31%
2 | MRLAGPLRIVVLVVSVGVTWIVVSILLGGPGSGFPRIQQLFTSPESSVTAAPRARKYKCGLPQPCPEEHLAFRVVSGAANVIGPKICLEDKMLMSSVKDNVGRGLNIALVNGVSGELIEARAFDMWAGDVNDLLKFIRPLHEGTLVFVASYDDPATKMNEETRKLFSELGSRNAKELAFRDSWVFVGAKGVQNKSPFEQHVKNSKHSNKYEGWPEALEMEGCIPRRSTAS | 24.6 ± 1.1 | 25.8 ± 2.3 | 5.06 ± 0.4 | 6.75 ± 0.34 | –
3 | MAAALFVLLGFALLGTHGASGAAGFVQAPLSQQRWVGGSVELHCEAVGSPVPEIQWWFEGQGPNDTCSQLWDGARLDRVHIHATYHQHAASTISIDTLVEEDTGTYECRASNDPDRNHLTRAPRVKWVRAQAVVLVLEPGTVFTTVEDLGSKILLTCSLNDSATEVTGHRWLKGGVVLKEDALPGQKTEFKVDSDDQWGEYSCVFLPEPMGTANIQLHGPPRVKAVKSSEHINEGETAMLVCKSESVPPVTDWAWYKITDSEDKALMNGSESRFFVSSSQGRSELHIENLNMEADPGQYRCNGTSSKGSDQAIITLRVRSHLAALWPFLGIVAEVLVLVTIIFIYEKRRKPEDVLDDDDAGSAPLKSSGQHQNDKGKNVRQRNSS | 22.7 ± 2.4 | 25.2 ± 1.3 | 5.59 ± 0.91 | 5.94 ± 1.8 | –
4 | MSDSKEPRVQQLGLLEEDPTTSGIRLFPRDFQFQQIHGHKSSTGCLGHGALVLQLLSFMLLAGVLVAILVQVSKVPSSLSQEQSEQDAIYQNLTQLKAAVGELSEKSKLQEIYQELTQLKAAVGELPEKSKLQEIYQELTRLKAAVGELPEKSKLQEIYQELTRLKAAVGELPEKSKLQEIYQELTRLKAAVGELPEKSKLQEIYQELTELKAAVGELPEKSKLQEIYQELTQLKAAVGELPDQSKQQQIYQELTDLKTAFERLCRHCPKDWTFFQGNCYFMSNSQRNWHDSVTACQEVRAQLVVIKTAEEQNFLQLQTSRSNRFSWMGLSDLNQEGTWQWVDGSPLSPSFQRYWNSGEPNNSGNEDCAEFSGSGWNDNRCDVDNYWICKKPAACFRDE [Q9H2X3] | 27 ± 3.5 | 23.8 ± 2.6 | 5.68 ± 0.32 | 6.17 ± 0.82 | –
5 | MACWWPLLLELWTVMPTWAGDELLNICMNAKHHKRVPSPEDKLYEECIPWKDNACCTLTTSWEAHLDVSPLYNFSLFHCGLLMPGCRKHFIQAICFYECSPNLGPWIQPVGSLGWEVAPSGQGERVVNVPLCQEDCEEWWEDCRMSYTCKSNWRGGWDWSQGKNRCPKGAQCLPFSHYFPTPADLCEKTWSNSFKASPERRNSGRCLQKWFEPAQGNPNVAVARLFASSAPSWELSYTIMVCSLFLPFLS [A6ND01] | – | – | – | – | percentage of EdU-negative (MCF7; [4]): 24.06 ± 0.21%; percentage of EdU-negative (MCF7; protein concentration 0.075 µM): 25.05 ± 0.12%; percentage of EdU-negative (hTERT-HMEC; [4]): 5.08 ± 0.06%; percentage of EdU-negative (hTERT-HMEC; protein concentration 0.075 µM): 7.68 ± 0.15%
6 | MYTAIPQSGSPFPGSVQDPGLHVWRVEKLKPVPVAQENQGVFFSGDSYLVLHNGPEEVSHLHLWIGQQSSRDEQGACAVLAVHLNTLLGERPVQHREVQGNESDLFMSYFPRGLKYQEGGVESAFHKTSTGAPAAIKKLYQVKGKKNIRATERALNWDSFNTGDCFILDLGQNIFAWCGGKSNILERNKARDLALAIRDSERQGKAQVEIVTDGEEPAEMIQVLGPKPALKEGNPEEDLTADKANAQAAALYKVSDATGQMNLTKVADSSPFALELLISDDCFVLDNGLCGKIYIWKGRKANEKERQAALQVAEGFISRMQYAPNTQVEILPQGHESPIFKQFFKDWK | 24.6 ± 2.7 | 26.02 ± 0.14 | 5.3073 ± 0.0047 | 6.38 ± 0.68 | –
7 | MKTALILLSILGMACAFSMKNLHRRVKIEDSEENGVFKYRPRYYLYKHAYFYPHLKRFPVQGSSDSSEENGDDSSEEEEEEEETSNEGENNEESNEDEDSEAENTTLSATTLGYGEDATPGTGYTGLAAIQLPKKAGDITNKATKEKESDEEEEEEEEGNENEESEAEVDENEQGINGTSTNSTEAENGNGSSGGDNGEEGEEESVTGANAEDTTETGRQGKGTSKTTTSPNGGFEPTTPPQVYRTTSPPFGKTTTVEYEGEYEYTGANEYDNGYEIYESENGEPRGDNYRAYEDEYSYFKGQGYDGYDGQNYYHHQ | – | – | – | – | percentage of EdU-negative (MCF7; [5]): 21.2 ± 2.7%; percentage of EdU-negative (MCF7; [6]): 24.2 ± 2.1%; percentage of EdU-negative (hTERT-HMEC; [5]): 5.184 ± 0.032%; percentage of EdU-negative (hTERT-HMEC; [6]): 5.29 ± 1.4%
8 | MALEKSLVRLLLLVLILLVLGWVQPSLGKESRAKKFQRQHMDSDSSPSSSSTYCNQMMRRRNMTQGRCKPVNTFVHEPLVDVQNVCFQEKVTCKNGQGNCYKSNSSMHITDCRLTNGSRYPNCAYRTSPKERHIIVACEGSPYVPVHFDASVEDST | – | – | – | – | percentage of EdU-negative (MCF7; [7]): 25.8 ± 0.52%; percentage of EdU-negative (MCF7; [8]): 24.63 ± 0.044%; percentage of EdU-negative (hTERT-HMEC; [7]): 4.76 ± 0.11%; percentage of EdU-negative (hTERT-HMEC; [8]): 4.52 ± 0.25%
